According to patent US20200347130A1 (JIANGSU HENGRUI MEDICINE, published 2020):
One block for each binder: values may come before it.

Tests used:
[1] = target: T1, Biotinylated CD96 antigen (human, UniProt P40200-2 22-503, limits assumed, biotinylated); assay: competition ELISA: antibody B pre-incubated with biotinylated CD96 antigen, added to a plate coated with antibody A, HRP-streptavidin, OD450; competitor: coated h1718-012
T1 sequence (looked up): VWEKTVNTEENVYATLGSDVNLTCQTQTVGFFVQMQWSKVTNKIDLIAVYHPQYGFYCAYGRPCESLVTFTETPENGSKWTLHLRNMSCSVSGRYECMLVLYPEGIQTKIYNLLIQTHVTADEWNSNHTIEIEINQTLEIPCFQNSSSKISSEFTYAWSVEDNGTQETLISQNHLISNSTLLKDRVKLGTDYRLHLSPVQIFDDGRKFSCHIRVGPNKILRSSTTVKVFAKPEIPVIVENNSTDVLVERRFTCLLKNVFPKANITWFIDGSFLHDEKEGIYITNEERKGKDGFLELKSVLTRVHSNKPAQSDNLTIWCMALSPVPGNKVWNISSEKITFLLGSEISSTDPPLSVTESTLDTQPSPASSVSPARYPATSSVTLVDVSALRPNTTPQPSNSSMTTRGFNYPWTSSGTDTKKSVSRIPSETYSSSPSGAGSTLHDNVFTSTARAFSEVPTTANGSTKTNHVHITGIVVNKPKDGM
Procedure: Competitive assays of different antibodies binding to CD96 protein were used to classify binding epitopes of the antibodies. The specific experimental methods are as follows:
Antibody A was diluted to a concentration of 2 μg/ml with PBS buffer (Shanghai Yuanpei Biotechnology Co., Ltd. Cat No. B320), pH 7.4, added to a 96-well microtiter plate (Corning, Cat No. CLS3590-100EA) at a volume of 50 μl/well, and coated at 4° C. overnight. After discarding the liquid, 250 μl/well of 5% skim milk (BD skim milk, Cat No. 232100) blocking solution diluted with PBS was added, and the plate was incubated at 37° C. for 3 hours. After blocking, the blocking solution was discarded, and the plate was washed 5 times with PBST buffer (pH 7.4 PBS containing 0.05% tween-20) and stored for later use. Antibody B was diluted to 40 μg/ml and 8 μg/ml with 1% BSA, and Biotinylated CD96 antigen was simultaneously diluted to 4 μg/mL. Subsequently, antibody B and antigen were mixed in a 1:1 volume ratio, pre-incubated at 37° C. for 45 minutes, added into the enzyme plate coated with antibody A, thus incubating the plate in an incubator at 37° C. for 1.5 hours. […] The absorption value was read at 450 nm with a NOVOStar microplate reader, and the OD value was used to determine whether A and B CD96 antibodies compete with each other. […]

[2] = target: T2, CD96 epitope peptide #3 IAVYHPQYGFYCAYGRPCES (47-66) (human); assay: peptide ELISA, peptide coated
T2 construct: also called 3# peptides; #3 antigen fragment
T2 peptide: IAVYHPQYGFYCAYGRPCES
Procedure: (§1) The epitopes recognized by anti-CD96 antibody were detected by the assay of binding the antibody to different polypeptide fragments of CD96 protein. The fragments of different polypeptides of the CD96 antigen were coated on the microtiter plate. The signal density after the antibody was added was used to judge the binding activity of the antibody and the polypeptide. The specific experimental method is as follows:
(§2) The polypeptides were diluted to a concentration of 20 μg/ml with PBS buffer (Shanghai Yuanpei Biotechnology Co., Ltd. Cat No. B320), pH 7.4, added to a 96-well microtiter plate (Corning, Cat No. CLS3590-100EA) at a volume of 50 μl/well, and coated at 4° C. overnight. After discarding the liquid, 250 μl/well of 5% skim milk (BD skim milk, Cat No. 232100) blocking solution diluted with PBS was added, and the plate was incubated in an incubator at 37° C. for 3 hours. After blocking, the blocking solution was discarded, and the plate was washed 5 times with PBST buffer (pH 7.4 PBS containing 0.05% tween-20). 50 μl/well of different concentrations of the antibodies to be tested (hybridoma purification antibody or humanized antibody) diluted with sample dilution was added, and the plate was incubated in an incubator at 37° C. for 2 hours. […] After washing the plate 5 times with PBST, 50 μl/well of TMB chromogenic substrate (KPL, Cat No. 52-00-03) was added, the plate was incubated at room temperature for 5-15 min, followed by adding 50 μl/well of 1M H₂SO₄ to stop the reaction. The absorption value was read at 450 nm with a microplate reader (Thermo Scientific MuLtiskan MK3), and the epitopes that CD96 antibody can recognize were analyzed.

[3] = target: T3, CD96 epitope peptide #13 (196-215) (human); assay: peptide ELISA, peptide coated
T3 peptide: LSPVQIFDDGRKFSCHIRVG
Procedure: as §1, §2

[4] = target: T4, CD96 epitope peptide #9 (137-156) (human); assay: peptide ELISA, peptide coated
T4 peptide: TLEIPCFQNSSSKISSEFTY
Procedure: as §1, §2

[5] = target: T5, CD96 epitope peptide #11 (166-185) (human); assay: peptide ELISA, peptide coated
T5 peptide: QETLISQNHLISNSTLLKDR
Procedure: as §1, §2

[6] = target: T6, CD96 epitope peptide #10 (149-170) (human); assay: peptide ELISA, peptide coated
T6 peptide: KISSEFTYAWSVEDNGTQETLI
Procedure: as §1, §2

[7] = target: T7, CD96 epitope peptide #7 (107-126) (human); assay: peptide ELISA, peptide coated
T7 peptide: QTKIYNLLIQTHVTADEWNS
Procedure: as §1, §2

[8] = target: T8, CD96 epitope peptide #18 (265-284) (human); assay: peptide ELISA, peptide coated
T8 peptide: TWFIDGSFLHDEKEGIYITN
Procedure: as §1, §2

[9] = target: T9, CD96 epitope peptide #21 (310-329) (human); assay: peptide ELISA, peptide coated
T9 peptide: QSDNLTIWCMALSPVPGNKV
Procedure: as §1, §2

[10] = target: T10, CD96 epitope peptide #12 (181-200) (human); assay: peptide ELISA, peptide coated
T10 peptide: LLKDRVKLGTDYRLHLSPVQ
Procedure: as §1, §2

[11] = target: T11, CD96 epitope peptide #6 (92-111) (human); assay: peptide ELISA, peptide coated
T11 peptide: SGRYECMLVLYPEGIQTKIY
Procedure: as §1, §2

[12] = target: T12, CD96 epitope peptide #4 (62-81) (human); assay: peptide ELISA, peptide coated
T12 peptide: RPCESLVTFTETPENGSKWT
Procedure: as §1, §2

IC50 (read off the curve) [1]: ~0.6 nM
B1: h1719-010 (antibody, V domains shown)
VH: EVTLKESGPVLVKPTETLTLTCTVSGFSLSSYGVSWVRQPPGKGLEWLGVIWGDGNTNYHSVLISRLTISKDTSKSQVVLTLTNMDPVDTATYYCAKQNYYGSRYGYPIDYWGQGTTVTVSS
VL: DIQMTQSPSSVSASVGDRVTITCKATQDVGTAVAWYQQKPGKAPKLLIYWASTRHTGVPSRFSGSGSGTDFTLTISSLQPEDFATYYCQQYGSSVLTFGGGTKVEIK
notes: Only variable regions are tied to this name

binding result [2]: binds
B2: ch1720 (antibody, human IgG4 S228P, kappa, V domains shown)
VH: EFQLQQSGPELVKPGASVKISCKASAYSLTDYNMNWVKQSNGKSLEWIGVINPSYGISSYNQKFKGKATLTVDQSSSTAYMHLNSLTSEDSAVYYCARQLRLPGYFDVWGTGTTVTVSS
VL: DIKMTQSPSSKNASLGERVTITCKASQDINSYLNWFQQKPGKSPKTLIYRASRLVDGVPSRFSGSGSGQDYSLTISSLEYEDMGIYYCLKYDEFPYTFGGGTKLEIKR
notes: also called chimeric antibody corresponding to m1720

binding result [3]: binds
binding result [4]: binds
binding result [5]: binds
binding result [6]: binds
binding result [7]: binds
binding result [8]: binds
binding result [9]: binds
binding result [10]: binds
binding result [11]: binds
binding result [12]: binds
B3: ch1718 (antibody, human IgG4 S228P, kappa, V domains shown)
VH: EFQLQQSGPELVKPGASVKISCKASAYSITDYNMNWVKQSNGKSLEWIGVINPSYGITDYNQNFKDKATLTVDQSSSTAYMQLNSLTSEDSAVYYCAIQLRLPGYFDVWGTGTTVIVSS
VL: DIKMTQSPSSMYASLGERVTITCKASQDINNYLNWFQQKPGKSPKTLIYRANRLVDGVPSRFSGSGSGQDYSLTISSLEYEDMGIYYCLKYDEFPYTFGGGTKVEIKR
notes: also called chimeric antibody corresponding to m1718
